Measured values published in US6416738B1, “Pretargeting methods and compounds” (NeoRx Corporation, priority 1973, dated 2002).

Biological target: T1, NR-LU-10 antigen (Homo sapiens, UniProt P16422)
T1 construct: Positive NR-LU-10 tissue reactivity indicates NR-LU-10 antigen expression by such tissues; from tissue; host or cells: carcinoma and normal tissue specimens
T1 sequence (P16422 24-314): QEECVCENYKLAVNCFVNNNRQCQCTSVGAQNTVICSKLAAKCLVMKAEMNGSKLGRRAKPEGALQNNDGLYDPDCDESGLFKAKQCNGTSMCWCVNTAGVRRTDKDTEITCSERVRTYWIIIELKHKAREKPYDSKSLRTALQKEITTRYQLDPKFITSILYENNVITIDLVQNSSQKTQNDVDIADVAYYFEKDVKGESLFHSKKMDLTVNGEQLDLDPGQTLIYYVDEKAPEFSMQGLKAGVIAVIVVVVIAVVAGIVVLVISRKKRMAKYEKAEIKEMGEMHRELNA
Assay: NR-LU-10 reactivity with normal tissues (Table B)
Type: binding
Excerpt: Radioimmunoassays, immunoprecipitation and Fluorescence-Activated Cell Sorter (FACS) analysis were used to obtain reactivity profiles of NR-LU-10. The NR-LU-10 target antigen was present on either fixed cultured cells or in detergent extracts of various types of cancer cells. For example, the NR-LU-10 antigen is found in small cell lung, non-small cell lung, colon, breast, renal, ovarian, pancreatic, and other carcinoma tissues. Tumor reactivity of the NR-LU-10 antibody is set forth in Table A, while NR-LU-10 reactivity with normal tissues is set forth in Table B. The values in Table B are obtained as described below. Positive NR-LU-10 tissue reactivity indicates NR-LU-10 antigen expression by such tissues.
The tissue specimens were scored in accordance with three reactivity parameters: (1) the intensity of the reaction; (2) the uniformity of the reaction within the cell type; and (3) the percentage of cells reactive with the antibody. These three values are combined into a single weighted comparative value between 0 and 500, with 500 being the most intense reactivity. This comparative value facilitates comparison of different tissues. Table B includes a summary reactivity value, the number of tissue samples examined and the number of samples that reacted positively with NR-LU-10.

[1] = Salivary Gland: Acinar Epithelium
[2] = Salivary Gland: Duct Epithelium
[3] = Spleen: Lymphoid Follicle-Central
[4] = Spleen: Lymphoid Follicle-Peripheral
[5] = Spleen: Trabecular Smooth Muscle
[6] = Stomach: Muscularis Mucosa/Externa
[7] = Stromal Tissue: Arteriolar Smooth Muscle
[8] = Stromal Tissue: Fibrous Connective Tissue
[9] = Stromal Tissue: Mast Cells/Eosinophils
[10] = Tonsil: Lymphoid Follicle-Central
[11] = Tonsil: Lymphoid Follicle-Peripheral
[12] = Urinary Bladder: Mucosal Epithelium
[13] = Vagina/Cervix: Epithelial Glands
[14] = Vagina/Cervix: Squamous Epithelium

B1: NR-LU-10: 150 kilodalton IgG2b monoclonal antibody recognizing an approximately 40 kilodalton glycoprotein antigen expressed on most carcinomas (antibody, V domains shown)
VH: EVQLQQSGAELVKPGASVRLSCTASGFNIKDTYMHWVIERPEQGLEWIGRIDPANGNTKCDPKFQGKATITADTSSNTAYLQLSSLTSEDTAVYYCSREVLTGTWSLDYWGQGTSVTVSS
VL: DIQMIQSPSSMFASLGDRVSLSCRASQGIRGNLDWYQQKPGGTIKLLIYSTSNLNSGVPSRFSGSGSGSDYSLTISSLDSEDFADYYCLQRNAYPYTFGGGTKLEIK
Summary Reactivity (Nerve: Endoneurium): 0
# Pos/Exam (Nerve: Neurolemma): 0/2
Summary Reactivity (Nerve: Neurolemma): 0
# Pos/Exam (Nerve: Neuron): 0/2
Summary Reactivity (Nerve: Neuron): 0
# Pos/Exam (Nerve: Perineurium): 0/2
Summary Reactivity (Nerve: Perineurium): 0
# Pos/Exam (Ovary: Corpus Luteum): 0/3
Summary Reactivity (Ovary: Corpus Luteum): 0
# Pos/Exam (Ovary: Eipthelium): 1/1
Summary Reactivity (Ovary: Eipthelium): 270
# Pos/Exam (Ovary: Granulosa): 1/3
Summary Reactivity (Ovary: Granulosa): 400
# Pos/Exam (Ovary: Serosa): 0/3
Summary Reactivity (Ovary: Serosa): 0
# Pos/Exam (Ovary: Theca): 0/3
Summary Reactivity (Ovary: Theca): 0
# Pos/Exam (Oviduct: Epithelium): 1/1
Summary Reactivity (Oviduct: Epithelium): 500
# Pos/Exam (Oviduct: Smooth Muscle): 0/3
Summary Reactivity (Oviduct: Smooth Muscle): 0
# Pos/Exam (Pancreas: Acinar Cell): 3/3
Summary Reactivity (Pancreas: Acinar Cell): 500
# Pos/Exam (Pancreas: Duct Epthelium): 3/3
Summary Reactivity (Pancreas: Duct Epthelium): 500
# Pos/Exam (Pancreas: Islet Cell): 3/3
Summary Reactivity (Pancreas: Islet Cell): 500
# Pos/Exam (Peritoneum: Mesothelium): 0/1
Summary Reactivity (Peritoneum: Mesothelium): 0
# Pos/Exam (Pituitary: Adenohypophysis): 2/2
Summary Reactivity (Pituitary: Adenohypophysis): 500
# Pos/Exam (Pituitary: Neurohypophysis): 0/2
Summary Reactivity (Pituitary: Neurohypophysis): 0
# Pos/Exam (Placenta: Trophoblasts): 0/3
Summary Reactivity (Placenta: Trophoblasts): 0
# Pos/Exam (Prostate: Concretions): 0/3
Summary Reactivity (Prostate: Concretions): 0
# Pos/Exam (Prostate: Glandular Epithelium): 3/3
Summary Reactivity (Prostate: Glandular Epithelium): 400
# Pos/Exam (Prostate: Smooth Muscle): 0/3
Summary Reactivity (Prostate: Smooth Muscle): 0
# Pos/Exam (Rectum: Lymph Node): 0/2
Summary Reactivity (Rectum: Lymph Node): 0
# Pos/Exam (Rectum: Mucosal Epithelium): 0/2
Summary Reactivity (Rectum: Mucosal Epithelium): 0
# Pos/Exam (Rectum: Muscularis Externa): 0/1
Summary Reactivity (Rectum: Muscularis Externa): 0
# Pos/Exam (Rectum: Muscularis Mucosa): 0/3
Summary Reactivity (Rectum: Muscularis Mucosa): 0
# Pos/Exam (Rectum: Nerve Ganglia): 0/3
Summary Reactivity (Rectum: Nerve Ganglia): 0
# Pos/Exam [1]: 3/3
Summary Reactivity [1]: 500
# Pos/Exam [2]: 3/3
Summary Reactivity [2]: 500
# Pos/Exam (Skin: Apocrine Glands): 3/3
Summary Reactivity (Skin: Apocrine Glands): 280
# Pos/Exam (Skin: Basal Layer): 3/3
Summary Reactivity (Skin: Basal Layer): 33
# Pos/Exam (Skin: Epithelium): 1/3
Summary Reactivity (Skin: Epithelium): 10
# Pos/Exam (Skin: Follicle): 1/1
Summary Reactivity (Skin: Follicle): 190
# Pos/Exam (Skin: Stratum Corneum): 0/3
Summary Reactivity (Skin: Stratum Corneum): 0
# Pos/Exam (Spinal Cord: Axons, Myelinated): 0/2
Summary Reactivity (Spinal Cord: Axons, Myelinated): 0
# Pos/Exam (Spinal Cord: Microglial): 0/2
Summary Reactivity (Spinal Cord: Microglial): 0
# Pos/Exam (Spinal Cord: Neurons): 0/2
Summary Reactivity (Spinal Cord: Neurons): 0
# Pos/Exam [3]: 0/3
Summary Reactivity [3]: 0
# Pos/Exam [4]: 0/3
Summary Reactivity [4]: 0
# Pos/Exam [5]: 0/3
Summary Reactivity [5]: 0
# Pos/Exam (Stomach: Chief Cells): 3/3
Summary Reactivity (Stomach: Chief Cells): 290
# Pos/Exam (Stomach: Mucosal Epithelium): 3/3
Summary Reactivity (Stomach: Mucosal Epithelium): 367
# Pos/Exam [6]: 0/3
Summary Reactivity [6]: 0
# Pos/Exam (Stomach: Parietal Cells): 3/3
Summary Reactivity (Stomach: Parietal Cells): 290
# Pos/Exam (Stomach: Smooth Muscle): 0/3
Summary Reactivity (Stomach: Smooth Muscle): 0
# Pos/Exam (Stromal Tissue: Adipose): 0/63
Summary Reactivity (Stromal Tissue: Adipose): 0
# Pos/Exam [7]: 0/120
Summary Reactivity [7]: 0
# Pos/Exam (Stromal Tissue: Endothelium): 0/120
Summary Reactivity (Stromal Tissue: Endothelium): 0
# Pos/Exam [8]: 0/120
Summary Reactivity [8]: 0
# Pos/Exam (Stromal Tissue: Macrophages): 0/117
Summary Reactivity (Stromal Tissue: Macrophages): 0
# Pos/Exam [9]: 0/86
Summary Reactivity [9]: 0
# Pos/Exam (Testis: Interstitial Cells): 0/3
Summary Reactivity (Testis: Interstitial Cells): 0
# Pos/Exam (Testis: Sertoli Cells): 3/3
Summary Reactivity (Testis: Sertoli Cells): 93
# Pos/Exam (Thymus: Hassal's Epithelium): 3/3
Summary Reactivity (Thymus: Hassal's Epithelium): 147
# Pos/Exam (Thymus: Hassal's Keratin): 3/3
Summary Reactivity (Thymus: Hassal's Keratin): 333
# Pos/Exam (Thymus: Lymphoid Cortex): 0/3
Summary Reactivity (Thymus: Lymphoid Cortex): 0
# Pos/Exam (Thymus: Lymphoid Medulla): 3/3
Summary Reactivity (Thymus: Lymphoid Medulla): 167
# Pos/Exam (Thyroid: C-Cells): 0/3
Summary Reactivity (Thyroid: C-Cells): 0
# Pos/Exam (Thyroid: Colloid): 0/3
Summary Reactivity (Thyroid: Colloid): 0
# Pos/Exam (Thyroid: Follicular Epithelium): 3/3
Summary Reactivity (Thyroid: Follicular Epithelium): 500
# Pos/Exam (Tonsil: Epithelium): 1/3
Summary Reactivity (Tonsil: Epithelium): 500
# Pos/Exam [10]: 0/3
Summary Reactivity [10]: 0
# Pos/Exam [11]: 0/3
Summary Reactivity [11]: 0
# Pos/Exam (Tonsil: Mucus Gland): 1/1
Summary Reactivity (Tonsil: Mucus Gland): 300
# Pos/Exam (Tonsil: Striated Muscle): 0/3
Summary Reactivity (Tonsil: Striated Muscle): 0
# Pos/Exam (Umbilical Cord: Epithelium): 0/3
Summary Reactivity (Umbilical Cord: Epithelium): 0
# Pos/Exam [12]: 3/3
Summary Reactivity [12]: 433
# Pos/Exam (Urinary Bladder: Serosa): 0/1
Summary Reactivity (Urinary Bladder: Serosa): 0
# Pos/Exam (Urinary Bladder: Smooth Muscle): 0/3
Summary Reactivity (Urinary Bladder: Smooth Muscle): 0
# Pos/Exam (Uterus: Endometrial Epithelium): 3/3
Summary Reactivity (Uterus: Endometrial Epithelium): 500
# Pos/Exam (Uterus: Endometrial Glands): 3/3
Summary Reactivity (Uterus: Endometrial Glands): 500
# Pos/Exam (Uterus: Smooth Muscle): 0/3
Summary Reactivity (Uterus: Smooth Muscle): 0
# Pos/Exam [13]: 1/1
Summary Reactivity [13]: 500
# Pos/Exam (Vagina/Cervix: Smooth Muscle): 0/2
Summary Reactivity (Vagina/Cervix: Smooth Muscle): 0
# Pos/Exam [14]: 1/1
Summary Reactivity [14]: 200
